Assay results as given in US20180250358A1, “GHRH AGONISTS FOR THE TREATMENT OF ISCHEMIC DISORDERS” (published 2018).
Non-standard residues stand in square brackets, D forms with d. *: point of attachment. Desaminotyrosyl = O=C(CCc1ccc(O)cc1)*; hArg = N=C(N)NCCCC[C@H](N)C(=O)O; Agmatine = N=C(N)NCCCCN*; Nle = CCCC[C@H](N)C(=O)O; Orn = NCCC[C@H](N)C(=O)O; Abu = CC[C@H](N)C(=O)O; GABA = NCCCC(=O)O

B1: P-20350 [Dat^1, D-Ala^2, Gln^8, Orn^12, Abu^15, Orn^21, Nle^27, Asp^28, Agm^29]hGHRH(1-29)NH2 (peptide)
peptide: [Desaminotyrosyl][dA]DAIFTQSYR[Orn]VL[Abu]QLSAR[Orn]LLQDI[Nle]D[Agmatine]
SMILES: CCCC[C@H](NC(=O)[C@@H](NC(=O)[C@H](CC(=O)O)NC(=O)[C@H](CCC(N)=O)NC(=O)[C@H](CC(C)C)NC(=O)[C@H](CC(C)C)NC(=O)[C@H](CCCN)NC(=O)[C@H](CCCNC(=N)N)NC(=O)[C@H](C)NC(=O)[C@H](CO)NC(=O)[C@H](CC(C)C)NC(=O)[C@H](CCC(N)=O)NC(=O)[C@H](CC)NC(=O)[C@H](CC(C)C)NC(=O)[C@@H](NC(=O)[C@H](CCCN)NC(=O)[C@H](CCCNC(=N)N)NC(=O)[C@H](Cc1ccc(O)cc1)NC(=O)[C@H](CO)NC(=O)[C@H](CCC(N)=O)NC(=O)[C@@H](NC(=O)[C@H](Cc1ccccc1)NC(=O)[C@@H](NC(=O)[C@H](C)NC(=O)[C@H](CC(=O)O)NC(=O)[C@@H](C)NC(=O)CCc1ccc(O)cc1)[C@@H](C)CC)[C@@H](C)O)C(C)C)[C@@H](C)CC)C(=O)N[C@@H](CC(=O)O)C(=O)NCCCCNC(=N)N
B2: P-25502 [Dat^1, D-Ala^2, Fpa5^6, Orn^12, Abu^15, Orn^21, Nle^27, Gab^30]hGHRH(1-30)NH2 (peptide)
peptide: YADAIFTNSYRKVLGQLSARKLLQDIMSRQ
modifications: Dat^1; D-Ala^2; Fpa5^6; Orn^12; Abu^15; Orn^21; Nle^27; Gab^30 (in place of Gln^30); C-terminal -NH2
B3: P-29702 [Dat^1, D-Ala^2, Orn^12, Abu^15, Orn^21, Nle^27, Gln-Gab^30]hGHRH(1-30)NH2 (peptide)
peptide: [Desaminotyrosyl][dA]DAIFTNSYR[Orn]VL[Abu]QLSAR[Orn]LLQDI[Nle]SRQ-{GABA-NH2}
SMILES: CCCC[C@H](NC(=O)[C@@H](NC(=O)[C@H](CC(=O)O)NC(=O)[C@H](CCC(N)=O)NC(=O)[C@H](CC(C)C)NC(=O)[C@H](CC(C)C)NC(=O)[C@H](CCCN)NC(=O)[C@H](CCCNC(=N)N)NC(=O)[C@H](C)NC(=O)[C@H](CO)NC(=O)[C@H](CC(C)C)NC(=O)[C@H](CCC(N)=O)NC(=O)[C@H](CC)NC(=O)[C@H](CC(C)C)NC(=O)[C@@H](NC(=O)[C@H](CCCN)NC(=O)[C@H](CCCNC(=N)N)NC(=O)[C@H](Cc1ccc(O)cc1)NC(=O)[C@H](CO)NC(=O)[C@H](CC(N)=O)NC(=O)[C@@H](NC(=O)[C@H](Cc1ccccc1)NC(=O)[C@@H](NC(=O)[C@H](C)NC(=O)[C@H](CC(=O)O)NC(=O)[C@@H](C)NC(=O)CCc1ccc(O)cc1)[C@@H](C)CC)[C@@H](C)O)C(C)C)[C@@H](C)CC)C(=O)N[C@@H](CO)C(=O)N[C@@H](CCCNC(=N)N)C(=O)N[C@@H](CCC(N)=O)C(=O)NCCCC(N)=O
B4: P-23252 [Dat^1-D-Ala^2, Orn^12, Abu^15, Orn^21, Nle^27, Asp^28, Har^30]hGHRH(1-30)NH2 (peptide)
peptide: [Desaminotyrosyl][dA]DAIFTNSYR[Orn]VL[Abu]QLSAR[Orn]LLQDI[Nle]DR[hArg]-NH2
SMILES: CCCC[C@H](NC(=O)[C@@H](NC(=O)[C@H](CC(=O)O)NC(=O)[C@H](CCC(N)=O)NC(=O)[C@H](CC(C)C)NC(=O)[C@H](CC(C)C)NC(=O)[C@H](CCCN)NC(=O)[C@H](CCCNC(=N)N)NC(=O)[C@H](C)NC(=O)[C@H](CO)NC(=O)[C@H](CC(C)C)NC(=O)[C@H](CCC(N)=O)NC(=O)[C@H](CC)NC(=O)[C@H](CC(C)C)NC(=O)[C@@H](NC(=O)[C@H](CCCN)NC(=O)[C@H](CCCNC(=N)N)NC(=O)[C@H](Cc1ccc(O)cc1)NC(=O)[C@H](CO)NC(=O)[C@H](CC(N)=O)NC(=O)[C@@H](NC(=O)[C@H](Cc1ccccc1)NC(=O)[C@@H](NC(=O)[C@H](C)NC(=O)[C@H](CC(=O)O)NC(=O)[C@@H](C)NC(=O)CCc1ccc(O)cc1)[C@@H](C)CC)[C@@H](C)O)C(C)C)[C@@H](C)CC)C(=O)N[C@@H](CC(=O)O)C(=O)N[C@@H](CCCNC(=N)N)C(=O)N[C@@H](CCCCNC(=N)N)C(N)=O
B5: P-23254 [Dat^1, D-Ala^2, Thr^8, Orn^12, Abu^15, Orn^21, Nle^27, Asp^28, Har^30]hGHRH(1-30)NH2 (peptide)
peptide: [Desaminotyrosyl][dA]DAIFTTSYR[Orn]VL[Abu]QLSAR[Orn]LLQDI[Nle]DR[hArg]-NH2
SMILES: CCCC[C@H](NC(=O)[C@@H](NC(=O)[C@H](CC(=O)O)NC(=O)[C@H](CCC(N)=O)NC(=O)[C@H](CC(C)C)NC(=O)[C@H](CC(C)C)NC(=O)[C@H](CCCN)NC(=O)[C@H](CCCNC(=N)N)NC(=O)[C@H](C)NC(=O)[C@H](CO)NC(=O)[C@H](CC(C)C)NC(=O)[C@H](CCC(N)=O)NC(=O)[C@H](CC)NC(=O)[C@H](CC(C)C)NC(=O)[C@@H](NC(=O)[C@H](CCCN)NC(=O)[C@H](CCCNC(=N)N)NC(=O)[C@H](Cc1ccc(O)cc1)NC(=O)[C@H](CO)NC(=O)[C@@H](NC(=O)[C@@H](NC(=O)[C@H](Cc1ccccc1)NC(=O)[C@@H](NC(=O)[C@H](C)NC(=O)[C@H](CC(=O)O)NC(=O)[C@@H](C)NC(=O)CCc1ccc(O)cc1)[C@@H](C)CC)[C@@H](C)O)[C@@H](C)O)C(C)C)[C@@H](C)CC)C(=O)N[C@@H](CC(=O)O)C(=O)N[C@@H](CCCNC(=N)N)C(=O)N[C@@H](CCCCNC(=N)N)C(N)=O
B6: P-23256 [Dat^1, D-Ala^2, Ala^8, Orn^12, Abu^15, Orn^21, Nle^27, Asp^28, Har^30]hGHRH(1-30)NH2 (peptide)
peptide: [Desaminotyrosyl][dA]DAIFTASYR[Orn]VL[Abu]QLSAR[Orn]LLQDI[Nle]DR[hArg]-NH2
SMILES: CCCC[C@H](NC(=O)[C@@H](NC(=O)[C@H](CC(=O)O)NC(=O)[C@H](CCC(N)=O)NC(=O)[C@H](CC(C)C)NC(=O)[C@H](CC(C)C)NC(=O)[C@H](CCCN)NC(=O)[C@H](CCCNC(=N)N)NC(=O)[C@H](C)NC(=O)[C@H](CO)NC(=O)[C@H](CC(C)C)NC(=O)[C@H](CCC(N)=O)NC(=O)[C@H](CC)NC(=O)[C@H](CC(C)C)NC(=O)[C@@H](NC(=O)[C@H](CCCN)NC(=O)[C@H](CCCNC(=N)N)NC(=O)[C@H](Cc1ccc(O)cc1)NC(=O)[C@H](CO)NC(=O)[C@H](C)NC(=O)[C@@H](NC(=O)[C@H](Cc1ccccc1)NC(=O)[C@@H](NC(=O)[C@H](C)NC(=O)[C@H](CC(=O)O)NC(=O)[C@@H](C)NC(=O)CCc1ccc(O)cc1)[C@@H](C)CC)[C@@H](C)O)C(C)C)[C@@H](C)CC)C(=O)N[C@@H](CC(=O)O)C(=O)N[C@@H](CCCNC(=N)N)C(=O)N[C@@H](CCCCNC(=N)N)C(N)=O
B7: P-25504 [Dat^1, D-Abu^2, Orn^12, Abu^15, Orn^21, Nle^27, Gab^30]hGHRH(1-30)NH2 (peptide)
peptide: B2 peptide
modifications: Dat^1; D-Abu^2; Orn^12; Abu^15; Orn^21; Nle^27; Gab^30 (in place of Gln^30); C-terminal -NH2
B8: P-27401 [Dat^1, D-Ala^2, Gln^8, Orn^12, Abu^15, Orn^21, Nle^27, Asp^28, D-Arg^29]hGHRH(1-29)NH-CH3 (peptide)
peptide: [Desaminotyrosyl][dA]DAIFTQSYR[Orn]VL[Abu]QLSAR[Orn]LLQDI[Nle]D[dR]-NHMe
SMILES: CCCC[C@H](NC(=O)[C@@H](NC(=O)[C@H](CC(=O)O)NC(=O)[C@H](CCC(N)=O)NC(=O)[C@H](CC(C)C)NC(=O)[C@H](CC(C)C)NC(=O)[C@H](CCCN)NC(=O)[C@H](CCCNC(=N)N)NC(=O)[C@H](C)NC(=O)[C@H](CO)NC(=O)[C@H](CC(C)C)NC(=O)[C@H](CCC(N)=O)NC(=O)[C@H](CC)NC(=O)[C@H](CC(C)C)NC(=O)[C@@H](NC(=O)[C@H](CCCN)NC(=O)[C@H](CCCNC(=N)N)NC(=O)[C@H](Cc1ccc(O)cc1)NC(=O)[C@H](CO)NC(=O)[C@H](CCC(N)=O)NC(=O)[C@@H](NC(=O)[C@H](Cc1ccccc1)NC(=O)[C@@H](NC(=O)[C@H](C)NC(=O)[C@H](CC(=O)O)NC(=O)[C@@H](C)NC(=O)CCc1ccc(O)cc1)[C@@H](C)CC)[C@@H](C)O)C(C)C)[C@@H](C)CC)C(=O)N[C@@H](CC(=O)O)C(=O)N[C@H](CCCNC(=N)N)C(=O)NC

Target: T1, GHRH receptor of human pituitary membranes (human, UniProt Q02643)
T1 sequence: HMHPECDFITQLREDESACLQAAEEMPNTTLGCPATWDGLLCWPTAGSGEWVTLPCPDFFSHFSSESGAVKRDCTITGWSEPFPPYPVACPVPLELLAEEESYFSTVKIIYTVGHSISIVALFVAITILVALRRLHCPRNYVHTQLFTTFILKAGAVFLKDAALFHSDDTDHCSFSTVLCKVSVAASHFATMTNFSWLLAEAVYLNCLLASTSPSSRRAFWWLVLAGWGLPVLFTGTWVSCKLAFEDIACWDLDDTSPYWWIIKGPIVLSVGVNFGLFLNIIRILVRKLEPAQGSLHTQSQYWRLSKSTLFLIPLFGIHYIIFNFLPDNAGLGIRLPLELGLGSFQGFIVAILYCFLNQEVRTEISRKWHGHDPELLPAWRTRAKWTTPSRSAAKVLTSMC
Assay: competition vs 125I-JV-1-42, human pituitary membranes
Procedure: The final binding affinities were expressed as IC₅₀ values and were calculated by using the LIGAND PC computerized curve-fitting program of Munson and Rodbard as modified by McPherson.

Point of comparison: B2, IC50 0.07 nM. Against it:
- B1 — 1.8-fold lower, 0.04 nM
- B3 — within 1.5-fold, 0.05 nM

Point of comparison: B1, “relative affinity (binding potency) vs GHRH” value 102 vs GHRH(1-29)=1. Against it:
- B2 — lower, 58 vs GHRH(1-29)=1
- B3 — lower, 81.2 vs GHRH(1-29)=1

Point of comparison: B1, “relative affinity (binding potency) vs JI-38” value (shortened to “relative affinity … vs JI-38”) 42.7 vs JI-38=1. Against it:
- B2 — lower, 24.4 vs JI-38=1
- B3 — lower, 34.2 vs JI-38=1

Target: T1, GHRH receptor of human pituitary …
Assay: competition vs 125I-[His1,Nle27]hGHRH(1-32)NH2, human pituitary membranes
Excerpt: (§1) Normal human pituitaries were purchased from the National Hormone and Peptide Program (A.F. Parlow, Los Angeles, County Harbor-UCLA Medical Center, Torrance, Calif.).

Point of comparison: B6, IC50 0.04 nM. Against it:
- B4 — 3.5-fold higher, 0.14 nM
- B5 — 1.8-fold higher, 0.07 nM

Point of comparison: B6, “relative affinity (binding potency) vs GHRH” value 148 vs GHRH(1-29)=1. Against it:
- B4 — lower, 42.3 vs GHRH(1-29)=1
- B5 — lower, 84.5 vs GHRH(1-29)=1

Point of comparison: B5, “relative affinity … vs JI-38” value 27.8 vs JI-38=1. Against it:
- B4 — lower, 13.9 vs JI-38=1
- B6 — higher, 48.7 vs JI-38=1

Target: T1, GHRH receptor of human pituitary …
Assay: as above
Remark: another data set of the same source
Excerpt: Normal human pituitary was purchased from the National Hormone and Peptide Program (UCLA Medical Center, Torrance, Calif.).

Point of comparison: B8, IC50 2.6 nM. Against it:
- B2 — within 1.5-fold, 2.16 nM
- B7 — within 1.5-fold, 2.85 nM
- B3 — within 1.5-fold, 3.3 nM

Point of comparison: B7, “relative affinity (binding potency) compared to JI-38” value 0.96 vs JI-38=1. Against it:
- B2 — higher, 1.27 vs JI-38=1
- B3 — lower, 0.83 vs JI-38=1
- B8 — higher, 1.05 vs JI-38=1

Point of comparison: B3, “relative affinity (binding potency) compared to hGHRH(1-29)” value 2.31 vs hGHRH(1-29)NH2=1. Against it:
- B2 — higher, 3.54 vs hGHRH(1-29)NH2=1
- B7 — higher, 2.68 vs hGHRH(1-29)NH2=1
- B8 — higher, 2.94 vs hGHRH(1-29)NH2=1

Target: T1, GHRH receptor of human pituitary …
Assay: competition vs 125I-JV-1-42, human pituitary membranes
Remark: another data set of the same source
Excerpt: as §1

Point of comparison: B8, IC50 2.74 nM. Against it:
- B1 — 5.3-fold lower, 0.52 nM
- B2 — 8.3-fold lower, 0.33 nM
- B7 — 1.9-fold lower, 1.44 nM
- B3 — 3.2-fold lower, 0.86 nM

Point of comparison: B2, “relative affinity … vs JI-38” value 13.2 vs JI-38=1. Against it:
- B1 — lower, 8.37 vs JI-38=1
- B7 — lower, 3.02 vs JI-38=1
- B3 — lower, 5.06 vs JI-38=1
- B8 — lower, 1.59 vs JI-38=1
